Results taken from paper PMC4200526.

Biological target: toluene 4-monooxygenase hydroxylase (T4moH), (TmoA-TmoB-TmoE)2, with C-terminally truncated TmoA and TmoE (UniProt Q00456)
UniProt Q00456, sequence (Q00456 1-491, chain 1 of 3): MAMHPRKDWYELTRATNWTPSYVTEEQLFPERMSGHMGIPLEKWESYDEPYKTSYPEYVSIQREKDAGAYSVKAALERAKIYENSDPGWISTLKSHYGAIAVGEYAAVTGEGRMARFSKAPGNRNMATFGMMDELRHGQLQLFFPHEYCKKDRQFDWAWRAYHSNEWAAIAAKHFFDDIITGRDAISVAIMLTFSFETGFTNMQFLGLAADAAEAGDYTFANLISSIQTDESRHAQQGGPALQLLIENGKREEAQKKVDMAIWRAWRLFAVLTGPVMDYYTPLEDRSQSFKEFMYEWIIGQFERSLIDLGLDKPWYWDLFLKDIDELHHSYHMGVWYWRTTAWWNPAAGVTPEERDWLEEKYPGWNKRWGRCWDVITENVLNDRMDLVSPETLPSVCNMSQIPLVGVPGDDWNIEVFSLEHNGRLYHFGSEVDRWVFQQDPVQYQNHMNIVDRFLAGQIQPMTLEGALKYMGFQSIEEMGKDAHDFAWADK
UniProt Q00456, sequence (Q00457 whole entry, chain 2 of 3, further chain, the tested form may be a part): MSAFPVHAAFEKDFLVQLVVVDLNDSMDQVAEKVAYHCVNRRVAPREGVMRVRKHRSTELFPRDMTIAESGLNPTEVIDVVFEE
UniProt Q00456, sequence (Q00460 1-306, chain 3 of 3, further chain): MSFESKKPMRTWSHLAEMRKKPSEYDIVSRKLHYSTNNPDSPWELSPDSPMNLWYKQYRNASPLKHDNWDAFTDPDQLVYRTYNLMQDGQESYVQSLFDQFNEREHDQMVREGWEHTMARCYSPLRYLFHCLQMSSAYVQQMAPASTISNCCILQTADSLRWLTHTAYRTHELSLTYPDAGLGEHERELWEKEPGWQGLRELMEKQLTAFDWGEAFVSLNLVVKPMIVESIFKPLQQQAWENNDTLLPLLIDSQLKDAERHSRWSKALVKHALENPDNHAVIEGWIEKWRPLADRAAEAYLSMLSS

apparent KM for T4moC in steady-state toluene hydroxylation (4 uM T4moH, 0.4 uM T4moF), before the increase caused by T4moD: 3 µM
apparent KM for T4moC in steady-state toluene hydroxylation (4 uM T4moH, 0.4 uM T4moF), increased by inhibiting T4moD: 16 µM
Substance: T4moC, Rieske-type ferredoxin of toluene 4-monooxygenase, Cys7Ser/Cys84Ala/Cys85Ala variant (used for 4P1C) (from UniProt Q00458 8-112) (natural protein)
